# US11702475B2, “Cysteine engineered fibronectin type III domain binding molecules” (Janssen Biotech, Inc., priority 2013, dated 2023)
# Test: Differential scanning calorimetry in PBS of FN3 domains
# Assay type: physicochemical
# Settings: DSC in PBS; EGFR-binding FN3 domains and stabilised mutants
# Excerpt: A subset of the EGFR binding FN3 domains was engineered to increase the conformational stability of each molecule. The mutations L17A, N46V, and E86I (described in US Pat. Publ. No. 2011/0274623) were incorporated into clones P54AR4-83, P54CR4-31, and P54AR4-37 by DNA synthesis. […] Differential scanning calorimetry in PBS was used to assess the stability of each mutant in order to compare it to that of the corresponding parent molecule.
# Thermal Stability of c-Met-Binding FN3 Domains Differential scanning calorimetry in PBS was used to assess the stability of each FN3 domain.
row,Molecule,Tm [°C]
1,"P54AR4-83: EGFR-binding FN3 domain, SEQ ID NO: 25 (protein, EGFR binding FN3 domain) LPAPKNLVVSEVTEDSLRLSWDDPWAFYESFLIQYQESEKVGEAINLTVPGSERSYDLTGLKPGTEYTVSIYGVHNVYKDTNMRGLPLSAEFTT",50.6
2,"P54CR4-31: EGFR-binding FN3 domain, SEQ ID NO: 26 (protein, EGFR binding FN3 domain) LPAPKNLVVSEVTEDSLRLSWTAPDAAFDSFLIQYQESEKVGEAINLTVPGSERSYDLTGLKPGTEYTVSIYGVLGSYVFEHDVMLPLSAEFTT",60.9
3,"P54CR4-31v2: P54CR4-31 with mutations L17A, N46V, E86I; SEQ ID NO: 28 (protein, EGFR binding FN3 domain) LPAPKNLVVSEVTEDSARLSWTAPDAAFDSFLIQYQESEKVGEAIVLTVPGSERSYDLTGLKPGTEYTVSIYGVLGSYVFEHDVMLPLSAIFTT",78.9
4,"P54AR4-37: EGFR-binding FN3 domain, printed SEQ ID NO: 22 (that of P54AR4-73) (protein, left off: small tags and cut ends) LPAPKNLVVSEVTEDSLRLSWTWPYADLDSFLIQYQESEKVGEAINLTVPGSERSYDLTGLKPGTEYTVSIYGVHNVYKDTNMRGLPLSAEFTT",45.9
5,"P54AR4-37v2: P54AR4-37 with mutations L17A, N46V, E86I; SEQ ID NO: 29 (protein, EGFR binding FN3 domain) LPAPKNLVVSEVTEDSLRLSWTWPYADLDSFLIQYQESEKVGEAINLTVPGSERSYDLTGLKPGTEYTVSIYGVHNVYKDTNMRGLPLSAEFTT",64.2

# Same assay, conditions: DSC in PBS; c-Met-binding FN3 domains
row,Molecule,Thermal Stability (Tm) [C.]
1,"P114AR7P92-G8: c-Met-binding FN3 domain, SEQ ID NO: 36 (protein, c-Met binding FN3 domain) LPAPKNLVVSRVTEDSARLSWTAPDAAFDSFVIRYFEFLGSGEAIVLTVPGSERSYDLTGLKPGTEYVVQILGVKGGYISIPLSAIFTT",90.9
2,"P114AR7P92-H5: c-Met-binding FN3 domain, SEQ ID NO: 37 (protein, c-Met binding FN3 domain) LPAPKNLVVSRVTEDSARLSWTAPDAAFDSFWIRYLEFLLGGEAIVLTVPGSERSYDLTGLKPGTEYVVQIMGVKGGTVSPPLSAIFTT",87
3,"P114AR7P93-G8: c-Met-binding FN3 domain, SEQ ID NO: 39 (protein, c-Met binding FN3 domain) LPAPKNLVVSRVTEDSARLSWTAPDAAFDSFWIRYFEFLGSGEAIVLTVPGSERSYDLTDLKPGTEYGVTINGVKGGRVSTPLSAIFTT",76.8
4,"P114AR7P93-H9: c-Met-binding FN3 domain, SEQ ID NO: 40 (protein, c-Met binding FN3 domain) LPAPKNLVVSRVTEDSARLSWTAPDAAFDSFWIRYFEFLGSGEAIVLTVPGSERSYDLTGLKPGTEYVVQIIGVKGGHISLPLSAIFTT",88.2
5,"P114AR7P94-A3: c-Met-binding FN3 domain, SEQ ID NO: 41 (protein, c-Met binding FN3 domain) LPAPKNLVVSRVTEDSARLSWTAPDAAFDSFWIRYFEFLGSGEAIVLTVPGSERSYDLTGLKPGTEYVVNIMGVKGGKISPPLSAIFTT",86.2
6,"P114AR7P94-E5: c-Met-binding FN3 domain, SEQ ID NO: 42 (protein, c-Met binding FN3 domain) LPAPKNLVVSRVTEDSARLSWTAPDAAFDSFWIRYFEFLGSGEAIVLTVPGSERSYDLTGLKPGTEYAVNIMGVKGGRVSVPLSAIFTT",80
7,"P114AR7P95-D4: c-Met-binding FN3 domain, SEQ ID NO: 45 (protein, c-Met binding FN3 domain) LPAPKNLVVSRVTEDSARLSWTAPDAAFDSFWIRYFEFLGSGEAIVLTVPGSERSYDLTGLKPGTEYVVQILGVKGGYISIPLSAIFTT",85.3
8,"P114AR7P95-F10: c-Met-binding FN3 domain, SEQ ID NO: 47 (protein, c-Met binding FN3 domain) LPAPKNLVVSRVTEDSARLSWTAPDAAFDSFWIRYFEFTTAGEAIVLTVPGSERSYDLTGLKPGTEYVVNIMGVKGGSISPPLSAIFTT",85.2
9,"P114AR7P95-G7: c-Met-binding FN3 domain, SEQ ID NO: 48 (protein, c-Met binding FN3 domain) LPAPKNLVVSRVTEDSARLSWTAPDAAFDSFWIRYFELLSTGEAIVLTVPGSERSYDLTGLKPGTEYVVNIMGVKGGSISPPLSAIFTT",87.2
10,"P114AR7P95-H8: c-Met-binding FN3 domain, SEQ ID NO: 49 (protein, c-Met binding FN3 domain) LPAPKNLVVSRVTEDSARLSWTAPDAAFDSFWIRYFEFVSKGEAIVLTVPGSERSYDLTGLKPGTEYVVNIMGVKGGSISPPLSAIFTT",83
11,"P114AR5P74-A5: c-Met-binding FN3 domain, SEQ ID NO: 32 (protein, c-Met binding FN3 domain) LPAPKNLVVSRVTEDSARLSWTAPDAAFDSFWIRYDEVVVGGEAIVLTVPGSERSYDLTGLKPGTEYYVNILGVKGGSISVPLSAIFTT",74.1
12,"P114AR7P92-F6: c-Met-binding FN3 domain, SEQ ID NO: 35 (protein, c-Met binding FN3 domain) LPAPKNLVVSRVTEDSARLSWTAPDAAFDSFWIRYFEFLGSGEAIVLTVPGSERSYDLTGLKPGTEYVVNILGVKGGGLSVPLSAIFTT",76.8
